# T1: human LAG-3 expressed on cells (human, UniProt P18627 23-525)
# T1 construct: also called hLAG-3; DO11.10 hLAG-3
# T1 sequence: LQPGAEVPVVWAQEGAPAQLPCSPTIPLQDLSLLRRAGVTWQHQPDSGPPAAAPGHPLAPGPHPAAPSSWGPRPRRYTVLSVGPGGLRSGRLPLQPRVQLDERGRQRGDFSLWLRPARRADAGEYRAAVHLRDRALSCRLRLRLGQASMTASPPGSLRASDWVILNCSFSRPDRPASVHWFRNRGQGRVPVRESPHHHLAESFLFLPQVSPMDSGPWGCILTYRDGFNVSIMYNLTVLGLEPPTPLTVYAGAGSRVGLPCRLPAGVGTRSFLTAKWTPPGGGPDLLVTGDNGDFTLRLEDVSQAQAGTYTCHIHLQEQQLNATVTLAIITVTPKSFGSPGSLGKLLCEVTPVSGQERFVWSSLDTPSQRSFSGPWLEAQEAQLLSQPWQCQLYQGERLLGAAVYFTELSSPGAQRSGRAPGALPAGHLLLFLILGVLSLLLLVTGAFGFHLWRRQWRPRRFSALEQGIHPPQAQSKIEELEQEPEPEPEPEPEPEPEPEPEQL
# T2: cynomolgus LAG-3 expressed on cells (cynomolgus monkey, UniProt P18627 24-525 (human entry))
# T2 construct: also called cLAG-3; cyno LAG-3
# T2 chain: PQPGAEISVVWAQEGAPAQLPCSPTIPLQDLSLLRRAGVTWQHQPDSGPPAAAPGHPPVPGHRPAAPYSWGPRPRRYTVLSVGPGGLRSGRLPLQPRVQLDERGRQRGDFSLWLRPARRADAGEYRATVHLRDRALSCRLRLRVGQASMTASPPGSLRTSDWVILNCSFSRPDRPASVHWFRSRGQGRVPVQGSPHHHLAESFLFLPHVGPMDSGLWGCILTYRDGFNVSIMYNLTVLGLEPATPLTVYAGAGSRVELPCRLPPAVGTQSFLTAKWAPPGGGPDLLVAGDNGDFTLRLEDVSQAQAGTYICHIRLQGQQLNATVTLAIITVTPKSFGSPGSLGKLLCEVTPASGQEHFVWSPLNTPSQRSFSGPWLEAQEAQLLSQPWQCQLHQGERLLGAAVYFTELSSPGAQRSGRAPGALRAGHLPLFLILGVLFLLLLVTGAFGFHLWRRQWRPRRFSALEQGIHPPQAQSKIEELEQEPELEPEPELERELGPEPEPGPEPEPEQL
# T3: recombinant Fc-tagged human LAG-3 (R&D Systems, 2319-L3-050) (human, UniProt P18627 23-450)
# T3 construct: Bought protein; also called LAG-3 Fc; human LAG-3-Fc; not shown: Fc tag of the bought fusion protein
# T3 sequence: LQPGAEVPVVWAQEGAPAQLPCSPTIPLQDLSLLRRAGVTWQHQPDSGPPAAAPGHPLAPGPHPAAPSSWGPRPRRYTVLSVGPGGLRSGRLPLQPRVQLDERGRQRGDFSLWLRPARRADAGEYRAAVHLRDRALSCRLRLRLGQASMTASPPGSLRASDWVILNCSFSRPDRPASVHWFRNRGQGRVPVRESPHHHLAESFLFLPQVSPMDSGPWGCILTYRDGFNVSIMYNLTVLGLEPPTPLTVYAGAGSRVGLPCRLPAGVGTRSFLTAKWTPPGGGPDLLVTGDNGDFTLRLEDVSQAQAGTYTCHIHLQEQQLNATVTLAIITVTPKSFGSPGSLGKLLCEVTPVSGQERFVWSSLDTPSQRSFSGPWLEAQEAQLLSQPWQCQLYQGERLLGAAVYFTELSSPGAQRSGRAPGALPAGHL
# T4: human FcγRIIb/c (R&D Systems, 1875-CD) (human, UniProt P31994 46-217)
# T4 construct: Bought recombinant protein
# T4 sequence (looked up): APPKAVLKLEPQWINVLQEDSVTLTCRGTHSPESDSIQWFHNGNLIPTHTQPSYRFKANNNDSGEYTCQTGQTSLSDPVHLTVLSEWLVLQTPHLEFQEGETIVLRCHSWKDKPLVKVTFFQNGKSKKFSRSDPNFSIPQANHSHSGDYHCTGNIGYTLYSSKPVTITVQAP
# T5: human FcγRIIa (R&D Systems, 1330-CD) (human, UniProt P12318 36-218, limits assumed)
# T5 construct: Bought recombinant protein
# T5 sequence (looked up): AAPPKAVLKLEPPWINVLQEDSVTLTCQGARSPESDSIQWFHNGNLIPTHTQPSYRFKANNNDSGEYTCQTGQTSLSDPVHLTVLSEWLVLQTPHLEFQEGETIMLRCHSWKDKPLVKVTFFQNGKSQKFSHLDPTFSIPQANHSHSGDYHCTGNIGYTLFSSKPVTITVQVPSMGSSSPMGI
# Assays:
# [1] = target: T1, human LAG-3 expressed on cells; experiment: flow cytometry on HEK cells expressing human LAG-3
# Protocol: (§1) The affinity of the mAb² (all containing the LALA mutation) for cell expressed human or cynomolgus LAG-3 was determined using flow cytometry. HEK cells expressing human or cynomolgus LAG-3 grown in DMEM (Life Technologies, 61965-026) containing 10% FBS (Life Technologies, 10270-1-6), 100 μg/ml Hygromycin B (Melford Laboratories Ltd, Z2475), 15 μg/ml Blasticidin (Melford Laboratories Ltd, B1105) and 1 μg/ml Doxycyclin (Sigma, D9891) were detached from tissue culture flasks using cell dissociation buffer (Life Technologies, 13151-014) and seeded in V-bottom 96-well plates (Costar, 3897) at 2×10⁵ cells/well. The plates were centrifuged at 1500 rpm for 3 min at 4° C. to pellet the cells. A dilution series of the mAb² (or control mAb) were incubated with the cells in a 100 μl volume for 1 h at 4° C. The plates were washed and secondary antibody (Anti-human Fc-488, Jackson ImmunoResearch, 109-546-098) was diluted 1:1000 in PBS and 100 μl was added to the cells for 30 min at 4° C. (plates were kept in the dark). The plates were washed and then cells were resuspended in 100 μl PBS containing 1 μg/ml DAPI (Biotium, 40043). The plates were read using Canto II flow cytometer (BD Bioscience). Dead cells were excluded and the fluorescence in the FITC channel (488 nm/530/30) was measured. The data was fit using log (agonist) vs response in GraphPad Prism Software. The plates were read on a BD FACSCanto II cytometer (BD Biosciences) and the data analysed using FlowJo.
# [2] = target: T6, human PD-L1 Fc (R&D Systems, 156-B7) (human, UniProt Q9NZQ7 19-239); experiment: SPR, BIAcore T200; mAb2 captured on Protein L, PD-L1 Fc injected
# T6 construct: Bought protein; not shown: Fc tag of the bought fusion protein
# T6 sequence (Q9NZQ7 19-239 limits assumed): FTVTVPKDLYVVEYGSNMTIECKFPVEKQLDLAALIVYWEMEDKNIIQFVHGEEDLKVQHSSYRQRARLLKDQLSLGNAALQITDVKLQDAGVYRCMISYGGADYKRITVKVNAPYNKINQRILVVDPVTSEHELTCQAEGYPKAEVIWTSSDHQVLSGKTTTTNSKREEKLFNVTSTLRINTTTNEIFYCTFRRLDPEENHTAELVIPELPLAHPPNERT
# Protocol: (§2) Protein L (Thermo, 21189) was immobilized on flow cells 1 and 2 of a Series S CM5 chip (GE Healthcare, BR-1005-30) by amine coupling (GE Healthcare, BR-1000-50) to a surface density of 2000 RU by following the manufacturer's instructions for the BIAcore T200 instrument. […] The association time was 3 min and the dissociation time was 6 min. Running buffer was HBS-P (GE Healthcare, BR-1003-68). Both flow cells were regenerated by injecting 10 mM sodium hydroxide (NaOH) at a flow rate of 100 μl/min for 20 seconds. The data were analysed by double referencing against the blank flow cell.
# (§3) The binding kinetics were fit with a 1:1 Langmuir model to generate binding association (kₐ) and dissociation (kd) rates. Equilibrium binding constants (KD) were calculated by dividing the dissociation rate by the association rate for each sample. Data analysis was performed with BiaEvaluation software version 3.2.
# [3] = target: T2, cynomolgus LAG-3 expressed on cells; experiment: flow cytometry on HEK cells expressing cynomolgus LAG-3
# Protocol: as §1
# [4] = target: T3, recombinant Fc-tagged human LAG-3 (R&D …); experiment: SPR, BIAcore T200; mAb2 captured on Protein L, human LAG-3 Fc injected
# Protocol: as §2, §3
# [5] = target: human PD-L1 expressed on cells (human, UniProt Q9NZQ7 19-290); experiment: cell-based or functional assay
# Sequence of human PD-L1 expressed on cells (Q9NZQ7 19-290 limits assumed): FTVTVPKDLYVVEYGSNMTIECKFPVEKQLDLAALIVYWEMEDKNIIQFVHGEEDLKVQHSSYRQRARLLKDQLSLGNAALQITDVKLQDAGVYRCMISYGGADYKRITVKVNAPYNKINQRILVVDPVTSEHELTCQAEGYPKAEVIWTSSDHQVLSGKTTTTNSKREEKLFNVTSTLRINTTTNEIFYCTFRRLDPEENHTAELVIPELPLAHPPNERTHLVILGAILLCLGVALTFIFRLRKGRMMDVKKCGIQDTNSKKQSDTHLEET
# [6] = target: T7, human FcγRIIIa (R&D Systems, 4325-FC) (human, UniProt P08637 17-208); experiment: SPR, Biacore T200; FcγR immobilised, 200 µg/ml injected
# T7 construct: Bought recombinant protein
# T7 sequence (P08637 17-208 limits assumed): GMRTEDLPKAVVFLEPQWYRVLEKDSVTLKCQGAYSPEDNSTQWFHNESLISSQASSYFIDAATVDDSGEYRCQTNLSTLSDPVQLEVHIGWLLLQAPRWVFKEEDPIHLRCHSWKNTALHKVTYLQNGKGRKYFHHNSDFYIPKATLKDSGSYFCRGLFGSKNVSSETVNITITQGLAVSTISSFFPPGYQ
# Protocol: (§4) The introduction of the LALA mutation in the CH2 domain of human IgG1 is known to reduce Fc γ receptor binding (Bruhns, P., et al. (2009); and Xu, D. et al. (2000)). […] The human FcγR binding assay was performed on a Biacore T200 instrument (GE Healthcare) using the Fcabs in the mock mAb² format. […] For each immobilized chip a flow cell was left blank for background subtraction. FcγR were immobilized using a concentration of 5 μg/ml in sodium acetate pH5 (ForteBio, 18-1069) and injected at a flow rate of 10 μl/min in 15 second cycles until the required immobilization level was reached.
# (§5) The flow cells were regenerated by injecting 10 mM sodium hydroxide (VWR, 28244.262) at a flow rate of 100 μl/min for 30 seconds. The data analysis was performed with BiaEvaluation software version 3.2 RC1 by double referencing against the blank flow cell (without immobilized FcγR) and subtracting a buffer cycle from test mAb².
# [7] = target: T8, human FcγRI (R&D Systems, 1257-FC) (human, UniProt P12314 16-288); experiment: as above
# T8 construct: Bought recombinant protein
# T8 sequence (P12314 16-288 limits assumed): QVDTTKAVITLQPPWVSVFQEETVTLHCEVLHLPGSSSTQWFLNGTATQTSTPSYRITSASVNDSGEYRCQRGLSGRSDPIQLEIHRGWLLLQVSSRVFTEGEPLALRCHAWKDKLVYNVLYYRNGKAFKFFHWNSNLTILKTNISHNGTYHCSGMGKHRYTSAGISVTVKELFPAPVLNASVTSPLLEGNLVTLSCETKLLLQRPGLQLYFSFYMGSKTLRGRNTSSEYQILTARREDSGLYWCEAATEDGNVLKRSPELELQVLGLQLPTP
# Protocol: as §4, §5
# [8] = target: T4, human FcγRIIb/c (R&D Systems, 1875-CD); experiment: SPR, Biacore T200; FcγR immobilised, 500 µg/ml injected
# Protocol: as §4, §5
# [9] = target: T5, human FcγRIIa (R&D Systems, 1330-CD); experiment: as above
# Protocol: as §4, §5
EC50 [1] [nM],Kd [2] [nM],koff [2] [s⁻¹],kon [2] [M⁻¹ s⁻¹],EC50 [3] [nM],fold better binding (EC50) than control antibody 25F7 [3] [fold],Kd [4] [nM],koff [4] [s⁻¹],kon [4] [M⁻¹ s⁻¹],Maximal IL2 release calculated as % ctrl (84G09 + 25F7) [5] [%],binding response at end of association (RU) [6] [RU],binding response at end of association (RU) [7] [RU],binding response at end of association (RU) [8] [RU],binding response at end of association (RU) [9] [RU],Binder
4.08,1.3,0.00022,170000,26.4,≥ 2,0.036,0.0002,5.4e+06,59,–,–,–,–,"anti-human LAG-3/PD-L1 mAb2 FS18-7-62/84G09 with LALA mutation (bispecific antibody, human IgG1, kappa, L234A L235A, also called FS18-7-62/84G09LALA; F518-7-62/84G09LALA) heavy: EVQLVESGGGLVQPGRSLRLSCAASGFTFDDYAMHWVRQTPGKGLEWVSGISWKSNIIGYADSVKGRFTISRDNAKNSLYLQMNSLRAEDTALYYCARDITGSGSYGWFDPWGQGTLVTVSSASTKGPSVFPLAPSSKSTSGGTAALGCLVKDYFPEPVTVSWNSGALTSGVHTFPAVLQSSGLYSLSSVVTVPSSSLGTQTYICNVNHKPSNTKVDKKVEPKSCDKTHTCPPCPAPEAAGGPSVFLFPPKPKDTLMISRTPEVTCVVVDVSHEDPEVKFNWYVDGVEVHNAKTKPREEQYNSTYRVVSVLTVLHQDWLNGKEYKCKVSNKALPAPIEKTISKAKGQPREPQVYTLPPSWDEPWGEDVSLTCLVKGFYPSDIAVEWESNGIPEWNYKTTPPVLDSDGSFFLYSKLTVPYDRWVWPDEFSCSVMHEALHNHYTQKSLSLSPG light: DIQMTQSPSSLSASVGDRVTITCRASQSISSYLNWYQQKPGKAPKPLIYVASSLQSGVPSSFSGSGSGTDFTLTISSLQPEDFATYYCQQSYSNPITFGQGTRLEIKRTVAAPSVFIFPPSDEQLKSGTASVVCLLNNFYPREAKVQWKVDNALQSGNSQESVTEQDSKDSTYSLSSTLTLSKADYEKHKVYACEVTHQGLSSPVTKSFNRGEC"
–,–,–,–,–,–,–,–,–,–,44,26,17.7,13,"anti-FITC mAb 4420 without LALA mutation (wild-type IgG1) (antibody, also called mock mAb IgG1; 4420 mAb IgG1) heavy: not shown light: DVVMTQTPLSLPVSLGDQASISCRSSQSLVHSNGNTYLRWYLQKPGQSPKVLIYKVSNRFSGVPDRFSGSGSGTDFTLKISRVEAEDLGVYFCSQSTHVPWTFGGGTKLEIKRTVAAPSVFIFPPSDEQLKSGTASVVCLLNNFYPREAKVQWKVDNALQSGNSQESVTEQDSKDSTYSLSSTLTLSKADYEKHKVYACEVTHQGLSSPVTKSFNRGEC"
–,–,–,–,–,–,–,–,–,–,8,2,-9.6,-12.7,"anti-FITC mAb 4420 comprising LALA mutation (antibody, human IgG1, kappa, L234A L235A, also called mock mAb LALA; 4420 LALA) heavy: not shown light: DVVMTQTPLSLPVSLGDQASISCRSSQSLVHSNGNTYLRWYLQKPGQSPKVLIYKVSNRFSGVPDRFSGSGSGTDFTLKISRVEAEDLGVYFCSQSTHVPWTFGGGTKLEIKRTVAAPSVFIFPPSDEQLKSGTASVVCLLNNFYPREAKVQWKVDNALQSGNSQESVTEQDSKDSTYSLSSTLTLSKADYEKHKVYACEVTHQGLSSPVTKSFNRGEC"

# — US20220185894A1 (F STAR THERAPEUTICS, published 2022)
